Kd data for one substance are collected here from article PMC7179120.

What all share (assay): other fluorescence titration; microplate-based binding assay (HI-FI) with Alexa-488-labelled Sod1 and Ccs; 20 mM Tris pH 7.5, 150 mM NaCl, 1 mM TCEP; plates imaged on a Typhoon FLA 9500; quadruplicate; apparent dissociation constants
Experiment [1] deals with human Sod1 A4V/C146S, metal-free, disulfide reduced, labelled with Alexa-488 at C57 (human).
In experiment [2] the target is human Sod1 G85R/C146S, metal-free, disulfide reduced, labelled with Alexa-488 at C57 (human).
The target in experiment [3] is human Sod1 G93A/C146S, metal-free, disulfide reduced, labelled with Alexa-488 at C57 (human).
Experiment [4] concerns the target human Sod1 H80R/C146S, metal-free, disulfide reduced, labelled with Alexa-488 at C57 (human).

Turning to “human copper chaperone for Sod1 (Ccs) (natural protein)”, the Kd was 42.1 nM in experiment [1], 35.5 nM in experiment [2], 33.4 nM in experiment [3] and 67.6 nM in experiment [4].
